According to patent US20150266951A1 (SNU R AND DB FOUNDATION, published 2015):

T1: recombinant human IP-10 protein (IFN-γ-inducible protein 10) (human, UniProt P02778 22-98)
T1 construct: also called IP-10 antigen; recombinant IP-10
T1 sequence: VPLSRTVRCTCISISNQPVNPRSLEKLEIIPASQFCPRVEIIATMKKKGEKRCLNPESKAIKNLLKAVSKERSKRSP

T2: Epitope 4 of IP-10 (amino acids 61-98), recombinant segment expressed in E. coli from pET41 (human)
T2 construct: Segment cloned EcoRI/XhoI into PET41 vector and tested as lysate of the expressing E. coli in western blot; any tags from the vector are not described; not shown: vector-coded fusion part of pET41 (GST is run as the negative control)
T2 chain: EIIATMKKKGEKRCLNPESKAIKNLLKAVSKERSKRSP

B1: anti-IP-10 monoclonal antibody #77 (antibody, V domains shown)
VH: QIQLVHSGPELKKPGETVKISCKASGYTFTDYSMHWVKQAPGKGLKWMGWINTETGEPTYADDFKGRFAFSLETSASTAYLQINNLKNEDTATYFCARMYDYSYYFDYWGQGTTLTVSS
VL: DIQMTQSPASLSVSVGETVTITCRASENIYSNLAWYQQKQGKSPQLLVYAATNLADGVPSRFSGSGSGTQYSLKINSLQSEDFGSYYCQHFWGTPYTFGGGTKLEIKR
notes: Mouse monoclonal antibody from a hybridoma; also called clone #77; clone #77 monoclonal antibody
B2: anti-IP-10 monoclonal antibody #88 (antibody, V domains shown)
VH: EVMLVESGGGLVKPGGSLKLSCTVSGFTFSGYAMSWVRQTPEKRLEWVASITSGGSYTSYPDNMKGRLTISRDNDRNTLDLQMSSLRSEDTAMYFCTRHSPVIASWFAYWGQGTLVHC
VL: DVLMTQTPLSLPVSLGDQASISCRSSQSIVHSNGNTYLEWYLQKPGQSPKLLIYKVSNRFSGVPDRFSGSGSGTDFTLKISRVEAEDMGVYYCFQGSHVPFTFGSGTKLEIKR
notes: Mouse monoclonal antibody from a hybridoma; also called clone #88; clone #88 monoclonal antibody
B3: anti-IP-10 monoclonal antibody #116 (antibody, V domains shown)
VH: QVQLQQSGPELVKPGASVKISCKASGYAFSSSWMNWVKQRPGQGLEWIGRIYPGDGDTNYNGKFKGKATLTADKSSSTAYMQLSSLTSVDSAVYFCARIGNYYGSSYLYWYFDVWGAGTTVTVS
VL: DIQMTQSPSSLSASLGGKVTITCKASQDIDKYIAWYQHRPGKGPSLLIHYTSTLQPGIPSRFSGSGSGKNYSFSISNLEPEDIATYYCLQYDNLLLTFGAGTKLELKR
notes: Mouse monoclonal antibody from a hybridoma; also called clone #116; clone #116 monoclonal antibody
B4: anti-IP-10 monoclonal antibody #129 (antibody, V domains shown)
VH: QVQLKQSGPGLVQPSQSLSITCTVSGFSLTSYGVHWVRQSPGKGLEWLGVIWSGGSTDYNAAFISRLSISKDNSKSQVFFKMNSLQANDTAIYYCARNWGAMDYWGQGTSVTVSS
VL: DIVMTQSPSSLSVSAGEKVTMSCKSSQSLLNSGNQKNYLAWYQQKPGQPPKLLIYGASTRESGVPDRFTGSGSGTDFTLTISSVQAEDLAVYYCQNDHSYPLTFGAGTKLELKR
notes: Mouse monoclonal antibody from a hybridoma; also called clone #129; clone #129 monoclonal antibody

What was measured:
[1] = molecular target: T1, recombinant human IP-10 protein …; assay: western blot on recombinant human IP-10 protein
[2] = molecular target: T2, Epitope 4 of IP-10 (amino acids 61-98), …; assay: western blot on recombinant IP-10 segments expressed in E. coli
Experimental: E. coli expressing each of the 4 epitopes of recombinant IP-10 was suspended in PBS buffer (137 mM NaCl, 2.7 mM KCl, 10 mM Na2HPO4, 2 mM KH2PO4) and the same volume of SDS-gel loading buffer (100 mM Tris-C1 (pH 6.8), 4% SDS, 0.2% bromophenol blue, 20% glycerol, 200 mM DTT) and heated at 100° C. for 5 min. The mixture was then centrifuged at 13,000 rpm for 10 min and the supernatant was separated on 12% SDS-PAGE, and the proteins separated on the gel were transferred to a polyvinylidenfluoride membrane. Western blot was performed using anti-IP-10 antibody and enhanced chemiluminescent reagent.

Row | Binder | binding result [1] | binding result [2]
1 | B1 | binds | binds
2 | B2 | binds | binds
3 | B3 | binds | binds
4 | B4 | binds | binds
